Measured values from US20250042969A1, “ANTIGEN DISCOVERY FOR T CELL RECEPTORS ISOLATED FROM PATIENT TUMORS RECOGNIZING WILD-TYPE ANTIGENS AND POTENT PEPTIDE MIMOTOPES” (The Board of Trustees of the Leland Stanford Junior …, priority 2017, published 2025).
Where a chain is given by its changes, count along the chain named.

B1: TCR 2A: TIL TCR of Patient A, TRAV19/TRBV10-1; alpha chain SEQ ID NO: 258, beta chain SEQ ID NO: 259 (protein)
alpha: QKVTQAQTEISVVEKEDVTLDCVYETRDTTYYLFWYKQPPSGELVFLIRRNSFDEQNEISGRYSWNFQKSTSSFNFTITASQVVDSAVYFCALSEARGGATNKLIFGTGTLLAVQPNIQNPDPAVYQLRDSKSSDKSVCLFTDFDSQTNVSQSKDSDVYITDKCVLDMRSMDFKSNSAVAWSNKSDFACANAFNNSIIPEDTFFPSPESS
beta: EITQSPRHKITETGRQVTLACHQTWNHNNMFWYRQDLGHGLRLIHYSYGVQDTNKGEVSDGYSVSRSNTEDLPLTLESAASSQTSVYFCASSRDTVNTEAFFGQGTRLTVVEDLKNVFPPEVAVFEPSEAEISHTQKATLVCLATGFYPDHVELSWWVNGKEVHSGVCTDPQPLKEQPALNDSRYALSSRLRVSATFWQNPRNHFRCQVQFYGLSENDEWTQDRAKPVTQIVSAEAWGRAD
B2: TCR 3B: TIL TCR of Patient B, TRAV19/TRBV10-1; alpha chain SEQ ID NO: 258, beta chain SEQ ID NO: 260 (protein)
alpha: B1 alpha
beta: B1 beta with T95F, N97S, T98N, A100Q, F101Y, Q104P, V111T

What was measured:
[1] = tested on: peptide-HLA-A*02:01 yeast-display library; assay: Selection of the peptide-HLA-A*02:01 yeast-display library by multimerized TCR with deep sequencing; format: binding, human; conditions: for cross-reactivity (breadth of tolerated amino acids per peptide position): round 3, accounting for peptide enrichment
[2] = biological target: T1, MMDFFNAQM-HLA-A*02:01 (Homo sapiens, UniProt P04439+P26368, D140Y/D185E/D98H/E176V/E277Q/G131W/G231S/I119V/I121R/I166T/I218V/N151K/N90K/P208A/P217A/Q86G/Q94H/R138H/R169H); assay: Surface plasmon resonance of TCR binding to immobilized […]-HLA-A*02:01; conditions: BIAcore T100, 25° C., equilibrium data, 1:1 binding model
T1 construct: HLA-A*02:01 (1-275); BirA biotinylation site (implied by BirA biotinylation); made in house
Procedure: Inclusion bodies containing the separate proteins were dissolved in 8 M urea, 40 mM Tris-HCl pH 8.0, 10 mM EDTA, and 10 mM DTT. […] After 72 hours at 4° C., the protein was dialyzed in 10 L of 10 mM Tris-HCl and purified via weak ion exchange using a DEAE cellulose column. The protein elution was purified using size exclusion chromatography on a Superdex 200 column and ion-exchange chromatography on a 5/50 Mono Q column (GE Healthcare). Protein was biotinylated overnight with birA ligase, 100 μM biotin, 40 mM Bicine pH 8.3, 10 mM ATP, and 10 mM Magnesium Acetate at 4° C. after buffer-exchange to 1×HBS pH 7.2 in a 30 kDa filter (Millipore) before being run on a size exclusion Superdex 200 column.
A different flow cell was immobilized with non-relevant peptide-HLA-A2 to serve as blank control. […] Injections of TCR were stopped after 60 s to allow sufficient time for SPR signals to reach plateau. The dissociation constant (KD) was obtained by fitting equilibrium data with a 1:1 binding model using BIAcore evaluation software.

| Molecule | enrichment of peptides / HLA-linked epitope tag from the library ([1]; HLA-A*02:01 library) | cross-reactivity (breadth of tolerated amino acids per peptide position) [1] | affinity (dissociation constant, KD) [2] | TCR tetramer staining of selected library yeast ([1]; 400 nM TCR tetramer, over rounds of selection) | unique peptides selected at round 3 ([1]; HLA-A*02:01 library, all four peptide lengths, deep sequencing) |
| --- | --- | --- | --- | --- | --- |
| B1 | enriched peptides from the library | more cross-reactive |  |  |  |
| B2 | enriched peptides from the library | relatively specific | could not be determined | tetramer stained yeast gradually increased across the rounds of selection | 66 |
